Test results taken from PMC10531801.

System: Gp49 (Bacillus phage SPO1)
Test: SPR
Conditions: EMSA: 20 mM Tris, 50 mM NaCl, pH 7.5, 30 min at 4 C, 2% agarose in 0.5x TBE; SPR: Biacore T100, CM5, 25 C, buffer not stated

## AUGAAUAGUUAAACAACGUGG [ssRNA]
  Kd: 1.86 µM
